{"source": "paper PMC5586346", "key": {"[1]": {"biological_target": "dominant-negative α7 nAChR α7_(345-8A) (UniProt P36544)"}, "[2]": {"biological_target": "α7 nicotinic acetylcholine receptor (mouse (endogenous in EOC20)) (UniProt P49582)"}, "[3]": {"biological_target": "dominant-negative α7 nAChR α7_(345-8A) (UniProt P36544)", "remark": "listed apart in the source"}, "[4]": {"biological_target": "α7 nicotinic acetylcholine receptor (mouse (endogenous in EOC20)) (UniProt P49582)", "remark": "listed apart in the source"}}}
{"substance": "heterotrimeric G protein subunit Gαi (from UniProt P08752 1-355) (natural protein)", "values": [{"measurement": "peak of the intracellular calcium transient (GCaMP5G, % of baseline) on 3 mM choline, EOC20 cells transfected with α7 (345-8A)", "setting": "[1]", "value": 368, "unit": "%"}, {"measurement": "peak of the intracellular calcium transient (GCaMP5G, % of baseline) on 3 mM choline, EOC20 cells transfected with empty plasmid", "setting": "[2]", "value": 580, "unit": "%"}, {"measurement": "TNF-α release (ELISA of the medium), % change from baseline with LPS, LPS + 1 mM choline, EOC20 cells transfected with α7 (345-8A)", "setting": "[3]", "value": -9.22, "unit": "%"}, {"measurement": "TNF-α release (ELISA of the medium), % change from baseline with LPS, LPS + 1 mM choline, EOC20 cells transfected with empty vector", "setting": "[4]", "value": -25.8, "unit": "%"}]}
